Assay results published in article PMC2241857.

What was measured:
DNA polymerase beta L22P = DNA polymerase beta L22P (UniProt P06746 1-335, L22P); assay: EMSA
DNA polymerase beta WT [1] = target: T1, DNA polymerase beta WT (UniProt P06746 1-335); assay: EMSA
DNA polymerase beta WT [2] = target: T1, DNA polymerase beta WT; assay: NaBH4 trapping of Schiff base complex

Binder | Kd (DNA polymerase beta L22P) | Kd (DNA polymerase beta WT [1]) | binding result (DNA polymerase beta WT [2])
45AGR (recessed) (dsDNA, template 5' phosphate) DNA 1: GCCTCGCAGCCGTCCAACCAAC DNA 2: GGACGGCATTGGATCGAGGTTGAGTTGGTTGGACGGCTGCGAGGC | 455 ± 100 nM | 84 ± 18 nM | –
45AG (1-nt gapped, 5'-phosphorylated downstream) (dsDNA, 5' phosphate on downstream oligo (S2) and template) DNA 1: GCCTCGCAGCCGTCCAACCAAC DNA 2: CAACCTCGATCCAATGCCGTCC DNA 3: GGACGGCATTGGATCGAGGTTGAGTTGGTTGGACGGCTGCGAGGC | 229 ± 50 nM | 12 ± 2 nM | –
45AG1bpDNP (1-nt gapped, non-phosphorylated downstream) (dsDNA, no 5' phosphate on downstream oligo (S2); template 5' phosphate) DNA 1: GCCTCGCAGCCGTCCAACCAAC DNA 2: CAACCTCGATCCAATGCCGTCC DNA 3: GGACGGCATTGGATCGAGGTTGAGTTGGTTGGACGGCTGCGAGGC | 291 ± 45 nM | 20 ± 3 nM | –
LPSD incised 5'-dRP substrate (UDG and APE1 treated) (dsDNA, uracil (position 16 of S8) removed by UDG; APE1 nick leaves 3'-OH and 5'-dRP on S8[17-34]) DNA 1: CTGCAGCTGATGCGC DNA 2: GTACGGATCCCCGGGTAC DNA 3: GTACCCGGGGATCCGTACGGCGCATCAGCTGCAG | – | – | binds
